This passage reports peak luminescence intensity in serum relative to buffer, peak luminescence intensity in whole blood relative to buffer and final luminescence intensity results from patent publication US20120107952A1.

The target in experiment [1] is Bovine-biotinamidocaproyl-labeled Albumin (biotinylated-BSA) (bovine) (UniProt P02769). Briefly: MA-SPCL, 33 nM Qdots-streptavidin on biotinylated-BSA coated gold disk, in serum, 655 nm, 217 degrees.
For experiment [2] the target is unchanged. Briefly: MA-SPCL, 33 nM Qdots-streptavidin on biotinylated-BSA coated gold disk, in whole blood, 655 nm, 217 degrees.
Experiment [3] has the same target. Briefly: MA-SPCL, 33 nM Qdots-streptavidin on biotinylated-BSA coated gold disk, emission at 217 degrees; similar after 30 min at room temperature.

Chain of UniProt P02769 (P02769 25-607 limits assumed): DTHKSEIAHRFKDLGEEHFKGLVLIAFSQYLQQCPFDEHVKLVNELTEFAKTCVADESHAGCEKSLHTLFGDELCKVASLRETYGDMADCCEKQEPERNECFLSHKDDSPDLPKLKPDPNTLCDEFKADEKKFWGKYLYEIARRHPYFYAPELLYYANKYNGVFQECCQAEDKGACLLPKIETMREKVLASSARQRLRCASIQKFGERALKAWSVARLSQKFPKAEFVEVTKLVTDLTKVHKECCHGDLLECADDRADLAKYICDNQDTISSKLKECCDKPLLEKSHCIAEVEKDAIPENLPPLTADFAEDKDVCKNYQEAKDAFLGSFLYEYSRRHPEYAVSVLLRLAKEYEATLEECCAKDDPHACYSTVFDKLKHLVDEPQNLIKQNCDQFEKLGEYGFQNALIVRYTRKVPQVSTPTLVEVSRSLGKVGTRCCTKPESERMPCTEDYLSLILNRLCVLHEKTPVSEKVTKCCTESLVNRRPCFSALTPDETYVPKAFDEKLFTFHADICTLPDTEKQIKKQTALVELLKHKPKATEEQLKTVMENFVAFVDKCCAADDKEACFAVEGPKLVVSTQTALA

With “Quantum dot 655-labeled streptavidin (Qdots-streptavidin) (from UniProt P22629 37-163)”, in experiment [1], the peak luminescence intensity in serum relative to buffer stood at 75%. For the same substance, the peak luminescence intensity in whole blood relative to buffer in experiment [2] worked out at 20%. In experiment [3], this substance showed a final luminescence intensity of 150 au.
